Targets include mCCL21 (mouse) (UniProt P84444); mCCL25 (mouse) (UniProt O35903); mCCL27 (mouse) (UniProt Q9Z1X0); mCXCL11 (mouse) (UniProt Q9JHH5); mCXCL13 (mouse) (UniProt O55038); mCXCL14 (mouse) (UniProt Q9WUQ5).
What all share (experiment): SPR (BIAcore X), E12 thiol-coupled to the chip, chemokine injected

pKd: −log10 of the molar value.

These results are taken from patent US20090104178A1.

Sequence of mCCL21 (mouse) (P84444 24-133): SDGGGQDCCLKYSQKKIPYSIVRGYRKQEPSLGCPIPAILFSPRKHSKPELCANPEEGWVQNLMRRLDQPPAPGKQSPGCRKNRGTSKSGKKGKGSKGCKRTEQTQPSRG
Sequence of mCXCL14 (mouse) (Q9WUQ5 23-99 limits assumed): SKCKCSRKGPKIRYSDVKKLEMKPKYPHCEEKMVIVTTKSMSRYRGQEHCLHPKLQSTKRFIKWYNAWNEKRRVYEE
Sequence of mCCL25 (mouse) (O35903 24-144 limits assumed): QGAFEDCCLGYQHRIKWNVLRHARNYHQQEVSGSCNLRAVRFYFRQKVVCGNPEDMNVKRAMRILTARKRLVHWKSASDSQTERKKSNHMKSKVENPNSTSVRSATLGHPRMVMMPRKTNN
Sequence of mCCL27 (mouse) (Q9Z1X0 26-120 limits assumed): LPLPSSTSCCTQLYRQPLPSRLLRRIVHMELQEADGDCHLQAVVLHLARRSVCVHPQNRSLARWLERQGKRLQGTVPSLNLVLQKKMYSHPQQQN
Sequence of mCXCL11 (mouse) (Q9JHH5 22-100 limits assumed): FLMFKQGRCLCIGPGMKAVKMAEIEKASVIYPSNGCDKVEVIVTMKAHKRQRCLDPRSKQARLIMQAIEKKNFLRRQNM
Sequence of mCXCL13 (mouse) (O55038 22-109 limits assumed): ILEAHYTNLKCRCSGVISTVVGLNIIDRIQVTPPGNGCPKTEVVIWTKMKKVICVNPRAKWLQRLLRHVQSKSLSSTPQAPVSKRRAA

For the substance Purified EV E12 protein, the pKd was 9.30 in the assay with mCCL21 (mouse); 9.15 with mCCL25 (mouse); 8.70 in the assay with mCCL27 (mouse); 9.00 in the assay with mCXCL11 (mouse); 8.82 in the assay with mCXCL13 (mouse); 8.82 in the assay with mCXCL14 (mouse).
